# Experimental data reported in IntAct's records for PubMed 18854156.
# B1: Sporulation initiation inhibitor protein Soj (Bacillus subtilis), P37522 (parent)
# chain: MGKIIAITNQKGGVGKTTTSVNLGACLAYIGKRVLLVDIDPQGNATSGLGIEKADVEQCVYDILVDDADVIDIIKATTVENLDVIPATIQLAGAEIELVPTISREVRLKRALEAVKQNYDYIIIDCPPSLGLLTINALTASDSVVIPVQCEYYALEGLSQLLNTVRLVQKHLNTDLMIEGVLLTMLDARTNLGIQVIEEVKKYFRDKVYKTVIPRNVRLSEAPSHGKPIILYDPRSRGAEVYLDLAKEVAANG
# Variants of: B1
# Settings: with dnaa_bacsu dnaA
row,Variant,effect of a mutation on the interaction
1,MGKIIAITNQKVGVGKTTTSVNLGACLAYIGKRVLLVDIDPQGNATSGLGIEKADVEQCVYDILVDDADVIDIIKATTVENLDVIPATIQLAGAEIELVPTISREVRLKRALEAVKQNYDYIIIDCPPSLGLLTINALTASDSVVIPVQCEYYALEGLSQLLNTVRLVQKHLNTDLMIEGVLLTMLDARTNLGIQVIEEVKKYFRDKVYKTVIPRNVRLSEAPSHGKPIILYDPRSRGAEVYLDLAKEVAANG [G12V],increasing interaction
2,MGKIIAITNQKGGVGATTTSVNLGACLAYIGKRVLLVDIDPQGNATSGLGIEKADVEQCVYDILVDDADVIDIIKATTVENLDVIPATIQLAGAEIELVPTISREVRLKRALEAVKQNYDYIIIDCPPSLGLLTINALTASDSVVIPVQCEYYALEGLSQLLNTVRLVQKHLNTDLMIEGVLLTMLDARTNLGIQVIEEVKKYFRDKVYKTVIPRNVRLSEAPSHGKPIILYDPRSRGAEVYLDLAKEVAANG [K16A],increasing interaction

# Variants of: B1
# Settings: with dnaa_bacsu dnaA
# Remark: another data set of the same source
row,Variant,effect of a mutation on the interaction
1,MGKIIAITNQKGGVGKTTTSVNLGACLAYIGKRVLLVDIAPQGNATSGLGIEKADVEQCVYDILVDDADVIDIIKATTVENLDVIPATIQLAGAEIELVPTISREVRLKRALEAVKQNYDYIIIDCPPSLGLLTINALTASDSVVIPVQCEYYALEGLSQLLNTVRLVQKHLNTDLMIEGVLLTMLDARTNLGIQVIEEVKKYFRDKVYKTVIPRNVRLSEAPSHGKPIILYDPRSRGAEVYLDLAKEVAANG [D40A],decreasing interaction
